Here are results for three molecules from publication PMC10480500, “Cryo-EM structure of a bacteriophage M13 mini variant” (Nature Communications, 2023).

A word on the stoichiometry N: it is a count of units in the complex or per binding partner.

B1: minor coat protein pVII (natural protein, bacteriophage M13, UniProt P69535 1-33, looked up)
chain: MEQVADFDTIYQAMIQISVVLCFALGIIAGGQR
notes: Minor coat protein pVII of bacteriophage M13 (encoded by helper phage M13KO7); 33 residues, no signal peptide; residues 1-4 not built in the model; 5 copies in the particle (layer 1); source: E. coli TG1 with pUC19-minigenome, infected with helper phage M13KO7; in the mini phage purified from the supernatant (cobalt resin, sucrose density gradient)
B2: minor coat protein pIX (natural protein, bacteriophage M13, UniProt P69538 1-32, looked up)
chain: MSVLVYSFASFVLGWCLRSGITYFTRLMETSS
notes: Minor coat protein pIX of bacteriophage M13 (encoded by helper phage M13KO7); 32 residues, no signal peptide; 5 copies in the particle (layer 2); source: E. coli TG1 with pUC19-minigenome, infected with helper phage M13KO7; in the mini phage purified from the supernatant (cobalt resin, sucrose density gradient)
B3: minor coat protein pVI (natural protein, bacteriophage M13, UniProt P69532 1-112, looked up)
chain: MPVLLGIPLLLRFLGFLLVTLFGYLLTFLKKGFGKIAIAISLFLALIIGLNSILVGYLSDISAQLPSDFVQGVQLILPSNALPCFYVILSVKAAIFIFDVKQKIVSYLDWDK
notes: 112 amino acids, no post-translational processing reported; residues 1 and 111-112 not built in the model; 5 copies in the particle; source: E. coli TG1 with pUC19-minigenome, infected with helper phage M13KO7; in the mini phage purified from the supernatant (cobalt resin, sucrose density gradient)

Data set [1] deals with the molecule itself. Kind of data set: cryo-EM structure; purified M13 mini phage particle (assembled in E. coli TG1 with helper phage M13KO7), 0.6-0.8 mg/ml; whole particle 3.5 Å with 5-fold symmetry; top, middle and bottom segments refined separately at 3.5, 3.1 and 3.3 Å.
In the data set “minor coat protein pVII” the target is B1. Described as above. The settings on record: both partners purified.

As for B1, the “stoichiometry N” value in data set [1] was 5.
B2: in the data set with minor coat protein pVII, the binding result is recorded as “binds”.
With B3, in data set [1], the “stoichiometry N” value amounted to 5.
